# Source: paper PMC8938923, “Essential Functional Interplay of the Catalytic Groups in Acid Phosphatase” (ACS Catalysis, 2022)
# Numbering of substitutions follows the chain as printed. Names and notes keep the numbering of the source.
# B1: YidA (alternative name: HAD13) (Escherichia coli K-12) (protein)
# chain: MAIKLIAIDMDGTLLLPDHTISPAVKNAIAAARARGVNVVLTTGRPYAGVHNYLKELHMEQPGDYCITYNGALVQKAADGSTVAQTALSYDDYRFLEKLSREVGSHFHALDRTTLYTANRDISYYTVHESFVATIPLVFCEAEKMDPNTQFLKVMMIDEPAILDQAIARIPQEVKEKYTVLKSAPYFLEILDKRVNKGTGVKSLADVLGIKPEEIMAIGDQENDIAMIEYAGVGVAMDNAIPSVKEVANFVTKSNLEDGVAFAIEKYVLN
# notes: construct only in supplement
# B2: ecAGP (α-D-glucose 1-phosphate phosphatase) (Escherichia coli K-12) (protein)
# chain: QTVPEGYQLQQVLMMSRHNLRAPLANNGSVLEQSTPNKWPEWDVPGGQLTTKGGVLEVYMGHYMREWLAEQGMVKSGECPPPYTVYAYANSLQRTVATAQFFITGAFPGCDIPVHHQEKMGTMDPTFNPVITDDSAAFSEQAVAAMEKELSKLQLTDSYQLLEKIVNYKDSPACKEKQQCSLVDGKNTFSAKYQQEPGVSGPLKVGNSLVDAFTLQYYEGFPMDQVAWGEIKSDQQWKVLSKLKNGYQDSLFTSPEVARNVAKPLVSYIDKALVTDRTSAPKITVLVGHDSNIASLLTALDFKPYQLHDQNERTPIGGKIVFQRWHDSKANRDLMKIEYVYQSAEQLRNADALTLQAPAQRVTLELSGCPIDADGFCPMDKFDSVLNEAVK
# notes: purified enzyme; homodimer; expression construct and tags only in supplement
# B3: ecAGP (α-D-glucose 1-phosphate phosphatase) (Escherichia coli K-12; H40D) (protein)
# chain: B2 chain with H18D
# notes: as for B2
# B4: ecAGP (α-D-glucose 1-phosphate phosphatase) (Escherichia coli K-12; D312A) (protein)
# chain: B2 chain with D290A
# notes: as for B2
# Key:
# [1] = substrate: O=P(O)(O)O[C@H]1O[C@H](CO)[C@@H](O)[C@H](O)[C@H]1O; assay: purified protein, by the assay type; design: Michaelis-Menten kinetics of substrate hydrolysis, initial rates of free phosphate release, pH 7.0, 37 °C
# Protocol: 8 S1.10 Structure determination and refinement The structure of H18D was determined by molecular replacement with PHASER9 using PDB ID: 1NT4 (H18A) as a search model. Model building was performed with COOT10 and refine-ment was carried out with phenix.refine. 11 The final structures were evaluated using MolPro-bity. 12 The number of Ramachandran outliers was below 0.2%. Figures of the structural models were prepared using PyMol 1.3. 13 S1.11 Phosphatase kinetics The rate constant kcat and the Michaelis constant KM were determined by measuring the initial rate of phosphate hydrolysis catalyzed by wild-type ecAGP (2 nM), H18D or H18D-2 (110 µM), D290A (2 nM - 5 µM, depending on the substrate used) or H18D/D290A (110 µM) in 50 mM HEPES buffer (pH 7.0). Reactions were incubated at 37°C on a Thermomixer comfort (Eppendorf, Hamburg, Germany) with agitation at 650 rpm. The reactions were started by ad-dition of enzyme. Glc1P, Glc6P, and the bis(cyclohexylammonium) salts of [compound left out], 2-nitrophenyl phosphate, 3-nitrophenyl phosphate, [compound left out] phosphate, 4-cyanophenyl S13 phosphate and 3-chlorophenyl phosphate were used as substrates in concentrations ranging from 0.01 mM to 10 mM. Incubation times were adjusted to ensure that the overall substrate hydrolysis was below 10 %. Samples withdrawn were quenched by heating (99°C, 5 min) and the free phosphate concentration was measured in supernatants of centrifuged (16000 × g, 15 min, 4°C) samples. All reactions were performed in triplicate. Kinetic parameters were obtained from non-linear least squares fits (SigmaPlot, Systat, Erkrath, Germany) of initial rates of phosphate release to the Michaelis–Menten equation. V is the initial rate, Vmax is the maximum initial rate, KM is the Michaelis constant and [S] is the initial substrate concentration (equation 1). The kcat was obtained from the relationship, kcat = Vmax/[E], where [E] is the molar concentration of active sites. [E] was obtained from the protein concentration using a molecular mass of the ecAGP subunit of 46674 Da. S10 (Merck Millipore) to a total protein concentration of 13 mg/mL in 10 mM NaAc (pH 4.5). Aliquots of 70 µL were stored at -70°C until use. Purity of the protein preparations was verified by SDS-PAGE. The ecAGP activity was assayed as described below in the section phosphatase kinetics. One unit of ecAGP activity is the amount of enzyme releasing 1 μmol of inorganic phosphate from Glc1P per minute under the conditions applied. S1.5 YidA The YidA from E. coli was used. A N-terminally His-tagged enzyme preparation was applied. […]
# [2] = substrate: O=P(O)(O)O[C@H]1O[C@H](CO)[C@@H](O)[C@H](O)[C@H]1O; assay: phosphomonoester hydrolysis kinetics; format: biochemical, Escherichia coli
Protein,Km [1] [µM],kcat [1] [s⁻¹],also measured
B1,210 ± 30,20 ± 1.3,–
B2,90 ± 20,35 ± 1.7,"kcat ([2]; range printed jointly for wild-type and H18D, individual values in supplement): 35 ± 2 s^–1"
B3,–,–,"kcat ([2]; range printed jointly for wild-type and H18D, phospho-enzyme intermediate on Asp18): 2.0 × 10^–4 s^–1"
B4,–,–,Km ([2]; general acid-base removed): 1060 ± 120 µM; kcat ([2]; general acid-base removed): 0.014 ± 0.01 s⁻¹
